Reference: paper PMC2654577

Experiments:
Assay in all cases: enzyme inhibition kinetics
[1] = biological target: full-length factor XIa autolysis loop variant fXIa-144-149A (human)
wild type factor Xa = wild type factor Xa (UniProt P00742)
[2] = biological target: factor XIa catalytic domain R171A (human) (UniProt P03951)
[3] = biological target: factor XIa catalytic domain K170A (human) (UniProt P03951)
[4] = biological target: factor XIa catalytic domain R173A (human) (UniProt P03951)

k2 (second-order inhibition rate constant) [1]: 600 M⁻¹ s⁻¹ | fold effect of heparin on inhibition (wild type factor Xa): 35 fold | k2 (second-order inhibition rate constant) [2]: 261000 M⁻¹ s⁻¹ | k2 (second-order inhibition rate constant) [3]: 734000 M⁻¹ s⁻¹ | k2 (second-order inhibition rate constant) [4]: 667000 M⁻¹ s⁻¹
B1: C1-inhibitor (natural protein)
chain: NPNATSSSSQDPESLQDRGEGKVATTVISKMLFVEPILEVSSLPTTNSTTNSATKITANTTDEPTTQPTTEPTTQPTIQPTQPTTQLPTDSPTQPTTGSFCPGPVTLCSDLESHSTEAVLGDALVDFSLKLYHAFSAMKKVETNMAFSPFSIASLLTQVLLGAGENTKTNLESILSYPKDFTCVHQALKGFTTKGVTSVSQIFHSPDLAIRDTFVNASRTLYSSSPRVLSNNSDANLELINTWVAKNTNNKISRLLDSLPSDTRLVLLNAIYLSAKWKTTFDPKKTRMEPFHFKNSVIKVPMMNSKKYPVAHFIDQTLKAKVGQLQLSHNLSLVILVPQNLKHRLEDMEQALSPSVFKAIMEKLEMSKFQPTLLTLPRIKVTTSQDMLSIMEKLEFFDFSYDLNLCGLTEDPDLQVSAMQHQTVLELTETGVEAAAASAISVARTLLVFEVQQPFLFVLWDQQHKFPVFMGRVYDPRA
